Our source for the stoichiometry N values is publication doi:10.1101/2022.06.26.497646.

In this test the target is complex III dimer (CIII2, cytochrome bc1 complex) of Tetrahymena thermophila (Tetrahymena thermophila (endogenous)). Description: cryo-EM structure.

As for “complex III dimer (CIII2, cytochrome bc1 complex) of Tetrahymena thermophila”, the stoichiometry N was found to be 2.

The stoichiometry N is the number of molecules, sites or subunits per partner or assembly.
